From the supplement of paper PMC12338614
± gives the uncertainty stated by the source.

B1: library; numbered along this chain (parent)
chain: MEVVDPQQLGMFTEGELMSVGMDTFIHRIDSTEVIYQPRRKRAKLIGKYLMGDLLGEGSYGKVKEVLDSETLCRRAVKILKKKKLRRIPNGEANVKKEIQLLRRLRHKNVIQLVDVLYNEEKQKMYMVMEYCVCGMQEMLDSVPEKRFPVCQAHGYFCQLIDGLEYLHSQGIVHKDIKPGNLLLTTGGTLKISDLGVAEALHPFAADDTCRTSQGSPAFQPPEIANGLDTFSGFKVDIWSAGVTLYNITTGLYPFEGDNIYKLFENIGKGSYAIPGDCGPPLSDLLKGMLEYEPAKRFSIRQIRQHSWFRKKHPPAEAPVPIPPSPDTKDRWRSMTVVPYLEDLHGADEDEDLFDIEDDIIYTQDFTVPGQVPEEEASHNGQRRGLPKAVCMNGTEAAQLSTKSRAEGRAPNPARKACSASSKIRRLSACKQQ

Variants of: B1
Assay: STK11 functional score (HeLa growth suppression), rescaled enrichment; synonymous median = 1, nonsense median = 0 (normalised score)
Details: with HeLa; variant type: missense
Summary of the method: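 Codon-randomised (POPCode) libraries of codon-optimised STK11 were integrated by Bxb1 at an AAVS1 landing pad in HeLa, in three regions each transfected three times. Integrants (BFP-negative, mCherry-positive) were FACS-sorted 4–5 days after electroporation and grown about two weeks; tiled gDNA amplicons were sequenced on NextSeq (~2 million reads per tile). The functional score is the wild-type-corrected post/pre-selection log ratio, rescaled to synonymous and nonsense medians, merged over codons and replicate transfections, with bootstrapped error.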

Variant | STK11 functional score
Y272M | 1.63 ± 0.14
K431F | 1.59 ± 0.28
V320F | 1.07 ± 0.37
V320S | 1.48 ± 0.14
D343W | 1.55 ± 0.14
D343F | 1.32 ± 0.39
P149C | 0.957 ± 0.33
S271A | 1.11 ± 0.31
Y118V | 0.988 ± 0.11
E57H | 1.53 ± 0.34
E57M | 1.26 ± 0.17
R409D | 1.09 ± 0.66
R409I | 1.24 ± 0.2
R409P | 1.57 ± 0.35
Q382P | 1.35 ± 0.33
Q382E | 1.2 ± 0.43
L290T | 1.07 ± 0.45
L290N | -0.076 ± 0.064
N380K | 1.42 ± 0.48
S283L | 0.985 ± 0.11
D176M | 0.0191 ± 0.14
D176W | -0.0742 ± 0.054
S421C | 0.549 ± 0.38
K269L | 1.45 ± 0.2

Variant | STK11 functional score
G52F | 1.63 ± 0.18
M335G | 1.55 ± 0.15
R415I | 0.924 ± 0.23
G171L | 1.43 ± 0.39
W308F | 1.02 ± 0.078
G346A | 1.57 ± 0.28
G346F | 1.29 ± 0.54
H345S | 1.18 ± 0.2
H345A | 1.56 ± 0.14
S299I | 1.25 ± 0.34
R297S | -0.196 ± 0.08
R297K | -0.29 ± 0.13
I360N | 1.11 ± 0.67
I360M | 0.866 ± 0.14
P411V | 1.62 ± 0.12
N266K | 0.318 ± 0.26
S325E | 1.24 ± 0.67
T249L | 1.08 ± 0.3
T249R | 1.28 ± 0.31
C391F | 0.922 ± 0.52
I161D | -0.303 ± 0.097
E349Y | 0.952 ± 0.56
Y246D | -0.149 ± 0.14
Y246M | 1.29 ± 0.17

Variant | STK11 functional score
Y246S | 0.254 ± 0.12
R211F | 1.61 ± 0.33
E317A | 1.53 ± 0.22
E317C | 1.49 ± 0.17
E357W | 0.957 ± 0.15
R87T | 1.48 ± 0.38
R87K | 0.613 ± 0.69
R425D | 1.61 ± 0.26
R425S | 1.54 ± 0.39
D352C | 1.34 ± 0.34
D352T | 1.57 ± 0.15
D352R | 1.61 ± 0.15
K312P | 1.37 ± 0.16
K312T | 1.5 ± 0.27
M129L | 0.635 ± 0.09
L427K | 1.53 ± 0.13
R75F | 1.08 ± 0.19
V243Q | 1.19 ± 0.52
V243I | 1.42 ± 0.14
V243L | 0.714 ± 0.13
W332V | 1.59 ± 0.27
Y49M | 1.22 ± 0.82
M18R | 0.834 ± 0.13
H174K | 0.153 ± 0.09

Variant | STK11 functional score
H174W | 1.02 ± 0.37
K44Y | 1.46 ± 0.087
P217R | 0.3 ± 0.39
N393L | 1.16 ± 0.46
E145W | 1.41 ± 0.34
N226H | 0.561 ± 0.47
N226V | 0.778 ± 0.56
W239Y | 0.934 ± 0.097
Q220W | 1.46 ± 0.12
P38V | 1.01 ± 0.095
R28G | 0.685 ± 0.16
S142K | 1.52 ± 0.34
E407S | 1.57 ± 0.18
E407I | 1.61 ± 0.22
P254H | 1.41 ± 0.15
H202D | 0.804 ± 0.38
H202T | 0.925 ± 0.22
G257A | 1.25 ± 0.6
E138V | 0.367 ± 0.2
G10F | 1.56 ± 0.41
G10P | 1.18 ± 0.49
Y126R | 0.256 ± 0.18
R39S | 1.17 ± 0.36
R39G | 1.04 ± 0.45

Variant | STK11 functional score
Q100E | 1.25 ± 0.76
Q100G | 1.17 ± 0.14
Q100H | 1.28 ± 0.4
G188M | -0.0265 ± 0.12
G188A | 0.938 ± 0.19
G188Y | 1.6 ± 0.23
A414V | 1.48 ± 0.14
D277M | 0.115 ± 0.11
Q7S | 1.02 ± 0.31
Q7W | 1.1 ± 0.13
K108A | 1.25 ± 0.12
K108I | 1.43 ± 0.34
T367R | 1.32 ± 0.27
Q305L | 1.6 ± 0.16
G288E | 1.5 ± 0.71
T250R | 0.727 ± 0.25
T250Y | 1.31 ± 0.65
T250F | 1.14 ± 0.2
T250A | 1.01 ± 0.11
I274Y | 1.16 ± 0.29
I274S | 0.98 ± 0.21
L117W | 1.29 ± 0.066
A406G | 1.33 ± 0.31
L55V | 0.737 ± 0.11

Variant | STK11 functional score
G270P | 1.43 ± 0.19
G270T | 1.09 ± 0.15
S422D | 1.59 ± 0.12
S422Q | 1.58 ± 0.13
K64N | 0.93 ± 0.15
F204R | 0.931 ± 0.16
F204G | 1.3 ± 0.17
P144E | 1.63 ± 0.2
P144W | 1.61 ± 0.15
T209V | 1.42 ± 0.31
T209S | 0.82 ± 0.11
S334T | 1.18 ± 0.13
P315Q | 1.34 ± 0.075
P315Y | 1.29 ± 0.08
L164S | 0.135 ± 0.1
L164I | 1.16 ± 0.17
A397W | 0.847 ± 0.43
A397E | 1.44 ± 0.2
G242E | 0.274 ± 0.12
G242L | -0.0195 ± 0.092
N119F | 1.16 ± 0.097
N119K | 1.18 ± 0.15
E130L | 0.308 ± 0.083
D350F | 0.0925 ± 0.3

Variant | STK11 functional score
R383V | 1.25 ± 0.38
R383I | 1.57 ± 0.22
E396S | 1.18 ± 0.19
C278M | 1.37 ± 0.14
M392V | 1.51 ± 0.23
E223Y | 1 ± 0.71
F309L | 0.874 ± 0.32
V173G | 1.15 ± 0.33
I192V | 1.33 ± 0.42
L245Q | 0.383 ± 0.19
L286V | 1.14 ± 0.18
K84G | 1.47 ± 0.4
V337C | 1.15 ± 0.19
V337R | 0.662 ± 0.2
P89Y | 0.644 ± 0.31
Y166F | 1.05 ± 0.27
Y166I | 1.21 ± 0.56
L80M | 0.45 ± 0.67
S69L | 1.24 ± 0.16
S69Q | 0.0756 ± 0.11
V63E | 0.189 ± 0.41
V63W | 0.213 ± 0.095
P413Y | 1.47 ± 0.26
